Experiment [1] concerns the target T1, hIL6 Receptor Complex (IL-6/IL-6R receptor complex) (human, UniProt P08887 20-358; P05231 30-212, limits assumed).
T1 construct: also called IL6RC; hIL6RC
Briefly: SPR (Biacore), INFγ immobilised, IgGλ injected, then IL6RC injected. How it is done: (§1) FIGS. 12A and 12B are a series of illustrations and graphs depicting SPR analysis of IgGκλ bispecific antibodies. In FIG. 12A, INFγ was immobilized at the surface of the Biacore chip and anti-IL6RC monospecific antibody ([…]), anti-INFγ monospecific antibody (IgGλ) and, anti-IL6RC/anti-INFγ bispecific antibody (IgGκλ) were injected on the surface followed by injection of IL6RC. In FIG. 12B, the anti-IL6RC/anti-INFγ bispecific antibody (IgGκλ) was immobilized on the chip surface and anti human-Kappa and anti-human Lambda antibodies were injected at the same concentration. The experiment was repeated inverting the order of antibody injection with identical results.
(§2) The capacity of the bispecific IgGκλ to interact with both targets simultaneously was tested by SPR. Biotinylated INFγ was immobilized on streptavidin coating CM5 Biacore chip. The monospecific and the bispecific antibodies were injected on this surface followed by injection of IL6RC. […] SPR was also used to assess the relative amounts of Kappa and Lambda light chains in the purified bispecific antibody. IgGκλ was directly immobilized via amine coupling on the surface of a CM5 Biacore chip and an anti-human CKappa antibody was injected followed by an anti-human CLambda antibody at the same concentration.
On the technique in general: SPR reads the build-up and loss of mass on a sensor chip optically.

Experiment [2] concerns the target T2, human interferon gamma (hIFNγ) (human, UniProt P01579 24-166, limits assumed).
T2 construct: also called INFγ
T2 sequence (looked up): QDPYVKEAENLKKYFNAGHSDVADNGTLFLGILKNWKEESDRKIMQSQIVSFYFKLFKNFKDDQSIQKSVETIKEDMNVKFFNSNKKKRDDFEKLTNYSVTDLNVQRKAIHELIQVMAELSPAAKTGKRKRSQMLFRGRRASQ
Briefly: SPR, Biacore 2000, IgG captured on anti-human IgG, antigen as analyte, 1:1 Langmuir fit. As for the experimental part: The affinity and binding kinetics of monospecific anti-INFγ IgGλ, the anti-IL6RC IgGκ and the bispecific IgGκλ antibodies were characterized on a Biacore 2000 instrument (Biacore AB, Uppsala, Sweden). 200RU of a goat anti-human polyclonal IgG (ahIgG; Biacore) were immobilized by EDC/NHS chemistry on a CM5 Biacore chip. This surface was used to capture monospecific or bispecific human IgG. The surface was regenerated after each cycle by injection of 10 mM glycine pH=1.5 at 30 μL/min, for 30 s followed by 1 min of stabilization time in HBS-EP buffer. […] Similar affinity values were obtained for the monospecific antibodies and the bispecific IgGκλ antibodies.

The target in experiment [3] is T2, human interferon gamma (hIFNγ). Briefly: SPR (Biacore), INFγ immobilised, IgG injected. As for the experimental part:
as §1, §2

B1: monospecific anti-INFγ IgGλ antibody (antibody, V domains shown)
VH: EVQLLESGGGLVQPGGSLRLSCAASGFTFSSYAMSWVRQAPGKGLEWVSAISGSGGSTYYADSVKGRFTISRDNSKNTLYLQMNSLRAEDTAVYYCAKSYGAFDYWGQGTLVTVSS
VL: NFMLTQPHSVSESPGKTVTISCTRSSGSIASNYVQWYQQRPGSSPTTVIYEDNQRPSGVPDRFSGSIDSSSNSASLTISGLKTEDEADYYCQSQSWDGNHIVFGGGTKLTVLG
notes: also called IgGλλ; mono λ
On to B1, for which the binding result in experiment [1] is “no binding”. In experiment [2], the Kd – broadly, the constant that tells how readily two partners part at equilibrium – is 0.196 nM; the koff (usually the first-order rate constant of dissociation) was found to be 0.000119 s⁻¹; the kon (commonly a measure of how fast the partners come together) worked out at 608000 M⁻¹ s⁻¹.

B2: anti-IL6RC/anti-INFγ bispecific IgGκλ antibody (bispecific antibody)
heavy: not shown
light 1: not shown
light 2: NFMLTQPHSVSESPGKTVTISCTRSSGSIASNYVQWYQQRPGSSPTTVIYEDNQRPSGVPDRFSGSIDSSSNSASLTISGLKTEDEADYYCQSQSWDGNHIVFGGGTKLTVLGQPKAAPSVTLFPPSSEELQANKATLVCLISDFYPGAVTVAWKADSSPVKAGVETTTPSKQSNNKYAASSYLSLTPEQWKSHRSYSCQVTHEGSTVEKTVAPTECS
notes: also called κλ-body; κλ body
In experiment [2], B2 had a Kd of 0.184 nM, a koff of 0.000169 s⁻¹ and a kon of 919000 M⁻¹ s⁻¹.

B3: monospecific anti-IL6RC IgGκ antibody (antibody, V domains shown)
VH: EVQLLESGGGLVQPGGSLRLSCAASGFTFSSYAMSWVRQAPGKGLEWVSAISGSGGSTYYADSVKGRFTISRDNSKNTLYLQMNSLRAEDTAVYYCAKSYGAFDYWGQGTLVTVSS
VL: EIVLTQSPATLSLSPGERATLSCRASQSVSSYLAWYQQKPGQAPRLLIYDASNRATGIPARFSGSGSGTDFTLTISSLEPEDFAVYYCQQWLPTTPATFGQGTKVEIKR
notes: also called IgGκκ; mono κ
As to B3, the binding result in experiment [3] is reported as “no binding”.

(Values after patent US20140179547A1 (NOVIMMUNE S A, published 2014).)
